The target in the assay is T1, 重组肌红蛋白(自产) (UniProt P02144 2-154).
T1 construct: The ELISA names it 重组肌红蛋白 and the BLI assay names it MYO蛋白; both are treated as one molecule; also called MYO蛋白; Mb
T1 sequence (looked up): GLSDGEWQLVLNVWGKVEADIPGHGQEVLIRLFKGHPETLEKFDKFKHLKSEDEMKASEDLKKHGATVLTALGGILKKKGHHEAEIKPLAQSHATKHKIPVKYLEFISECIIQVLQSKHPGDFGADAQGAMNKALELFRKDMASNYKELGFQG
Kind of assay: BLI, antibody captured on AMC sensors, MYO protein in serial dilution.

B1: 实施例1的肌红蛋白单克隆抗体(WT) (antibody, mouse IgG1, kappa, V domains shown)
VH: QIQLVQSGPELKKPGETVKISCKASGYTYTEFSVHWVKQAPGKGLKWMGWINSETSEPTYGDDFKGRFAFSLETSASAAYLQINNLKNEDSATYFCARRAYYLFGPFTYWGQGTLVTVSA
VL: DIVLTQSPASLAVSLGQRATISCRASKSVDFNGDSYMNWHQQKPGQPPKLLIYAASQRESGIPARFSGSGSGTDFTLNIHPVEEEDAATYYCQHSNEEPYTFGGGTKLEIKR
notes: Recombinant antibody cloned from hybridoma 5G9 and expressed in CHO cells; Detected with goat anti-mouse IgG-HRP; also called WT抗体; 5G9 recombinant antibody
In general, Kd refers to the equilibrium constant for the complex coming apart. Higher therefore signals weaker binding. In general, koff refers to the rate constant with which the complex falls apart. High values mean fast dissociation, low ones slow dissociation. In general, kon refers to the rate constant with which the complex forms. Higher therefore signals faster complex formation. Molecule B1 had a Kd of 4.56 nM, a koff of 0.000118 s⁻¹ and a kon of 25900 M⁻¹ s⁻¹.

Source of the values: patent CN113929777A (DONGGUAN PENGZHI BIOTECHNOLOGY CO LTD, dated 2022).
